The values that follow are results of earlier work, collected in PMC10243098.

This series has as its target histone H4 N-terminal 20-mer peptide-CoA bisubstrate inhibitor 1-20 (Homo sapiens) (UniProt P62805).

Chain of HAT1 (O14929 2-419): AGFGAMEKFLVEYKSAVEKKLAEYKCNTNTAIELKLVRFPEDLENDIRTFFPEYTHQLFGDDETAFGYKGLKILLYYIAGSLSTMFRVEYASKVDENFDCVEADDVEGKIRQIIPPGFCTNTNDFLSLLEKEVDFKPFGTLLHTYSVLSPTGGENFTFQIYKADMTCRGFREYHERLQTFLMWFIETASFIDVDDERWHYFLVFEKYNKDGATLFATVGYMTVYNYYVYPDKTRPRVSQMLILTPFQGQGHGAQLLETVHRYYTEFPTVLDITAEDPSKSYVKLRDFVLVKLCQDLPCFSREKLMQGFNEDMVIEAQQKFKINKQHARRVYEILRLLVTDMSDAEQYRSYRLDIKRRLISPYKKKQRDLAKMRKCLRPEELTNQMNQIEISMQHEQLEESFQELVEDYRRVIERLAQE

As to HAT1 (from UniProt O14929), the Ki is 1 nM.
